Columns and labels:
[1] = tested on: phosphatidylcholine (PC) liposomes; assay: Yeast proteome chip probed with PC liposomes; details: liposome binding signal on yeast proteome chip, Cy3-streptavidin detection
Procedure, shortened: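 Yeast proteome chips incubated 1 h at RT with sonicated liposomes of PC containing 1% (w/w) biotin-DHPE, plus 5% (w/w) of the indicated phosphoinositide where applicable. After PBS washes, bound liposomes detected with Cy3- or Cy5-streptavidin (>30 min, RT, dark) and fluorescence scanned.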

PI(3,4,5)P3 liposomes = assay: Yeast proteome chip probed with PI(3,4,5)P3 liposomes; details: liposome binding signal on yeast proteome chip, Cy3-streptavidin detection
PI(3,4)P2 liposomes = assay: Yeast proteome chip probed with PI(3,4)P2 liposomes; details: liposome binding signal on yeast proteome chip, Cy3-streptavidin detection
PI(3)P liposomes = assay: Yeast proteome chip probed with PI(3)P liposomes; details: liposome binding signal on yeast proteome chip, Cy3-streptavidin detection
PI(4,5)P2 liposomes = assay: Yeast proteome chip probed with PI(4,5)P2 liposomes; details: liposome binding signal on yeast proteome chip, Cy3-streptavidin detection
PI(4)P liposomes = assay: Yeast proteome chip probed with PI(4)P liposomes; details: liposome binding signal on yeast proteome chip, Cy3-streptavidin detection
six different liposomes = assay: Reverse membrane assay: proteins spotted on nitrocellulose probed with six liposomes; format: binding; details: HRP-conjugated streptavidin
Description: B. A reverse assay was carried out to test for protein-lipid interactions. The proteins were prepared and spotted onto nitrocellulose filters in a dilution series and probed with the six different liposomes. As a control, the six liposomes were also added to the BSA-blocked membrane. After extensive washing, the bound liposomes were detected using an HRP-conjugated streptavidin and an ECL kit.
C. Linear correlation between the binding signals and the amounts of Rim15p in a membrane assay. When liposome-binding signals of Rim15p from the membrane assay (FIG. 4B) were plotted against the concentration gradient of the spotted Rim15p, the binding signals of PI(4)P, PI(3,4)P2, PI(3)P, and PI(4,5)P2 correlated linearly with the amounts of Rim15p.
Therefore, six proteins, i.e., Rim15p, Eno2p, Hxk1p, Sps1p, Yg1059wp, and Gcn2p, were further tested for phosphoinositol binding using two types of standard assays (Williamson, 2000, Nat. Struct Biol. 7(10):834-7). For Rim15p, Eno2p, and Hxk1p, PI(4,5)P2 liposomes were first adhered to a nitrocellulose membrane, which was then blocked by BSA; different amounts of the GST fusion proteins and a GST control were used to probe the membrane, and bound proteins were detected using anti-GST antibodies. […] The bound liposomes were detected using a horseradish peroxidase (“HRP”)-conjugated streptavidin.

B1: SPS1: yeast GST-HisX6 fusion protein on proteome chip (protein, UniProt P08458 1-490, looked up)
Sporulation-specific protein 1: MESKEISIRSRTPPSKLYSIQSCIGRGNFGDVYKAVDRVTQEIVAIKVVNLEHSDEDIELLAQEIFFLAELKSPLITNYIATMLEDVSMWIVMEYCGGGSCSDLLKRSYVNGLPEEKVSFIIHEVTLGLKYLHEQRKIHRDIKAANILLNEEGMVKLGDFGVSGHIRSTLKRDTFVGTPYWMAPEVVCCEVDGYNEKADIWSLGITTYELLKGLPPLSKYDPMKVMTNLPKRKPPKLQGPFSDAAKDFVAGCLVKTPADRPSAYNLLSFEFVKNITITNLKSDVDLIKQKKVQERYTKVPKYPLQNRLYKNSNTVRGKEFWNFESTRLSTTQISKEELSPITQDSPTSSLNMESPYLLHGQTVTPITNPSSSSFRKCTQPVFELDSGMDIDSGCPNAQAETEIVPLSNHNKKHKKNDIQALKIEKFDYLKNIVSHILNRMYDRARDDETRKYVNEMLKQFIKTEANVPGFNEVFIEEISLRIEAIKKGFV
modifications: GST-His6 fusion tag
notes: yeast GST-HisX6 fusion protein on proteome chip
- PC [1]: 557.02
- PI(3, 4, 5)P3 (PI(3,4,5)P3 liposomes): 389.70
- PI(3, 4)P2 (PI(3,4)P2 liposomes): 1147.50
- PI(3)P (PI(3)P liposomes): 88.50
- PI(4, 5)P2 (PI(4,5)P2 liposomes): 358.84
- PI(4)P (PI(4)P liposomes): 246.92
- liposome binding in reverse membrane assay (six different liposomes): bound all five phosphoinositol-containing liposomes nearly equally
